These results are taken from patent US20100298213A1, “Pharmaceutically Active Insulin Receptor-Modulating Molecules” (Novo Nordisk A/S, priority 2004, published 2010).

Ends that are not written are not given here.

Assay [1] deals with RIR +11 (rat insulin receptor, B isoform) (Rattus norvegicus, UniProt P15127). The assay can be described thus: Binding of IM peptides to IR isoform RIR +11. To be noted: +11 (B) isoform. An excerpt: (§1) A number of IRBPs (S519; S557; S597; S636; S667; S733; S671; S660; S696; S574; S700; S626; and S726), some of which described in the prior patent documents, were applied to A and B isoforms (−11 and +11 isoforms) of the human, rat, and pig insulin receptors (HIR, RIR, and PIR) using standard methods.

The target in assay [2] is insulin receptor on mouse adipocytes (mouse, UniProt P15208 28-1372). The assay can be described thus: cell-based or functional assay.
Chain of insulin receptor on mouse adipocytes (P15208 28-1372): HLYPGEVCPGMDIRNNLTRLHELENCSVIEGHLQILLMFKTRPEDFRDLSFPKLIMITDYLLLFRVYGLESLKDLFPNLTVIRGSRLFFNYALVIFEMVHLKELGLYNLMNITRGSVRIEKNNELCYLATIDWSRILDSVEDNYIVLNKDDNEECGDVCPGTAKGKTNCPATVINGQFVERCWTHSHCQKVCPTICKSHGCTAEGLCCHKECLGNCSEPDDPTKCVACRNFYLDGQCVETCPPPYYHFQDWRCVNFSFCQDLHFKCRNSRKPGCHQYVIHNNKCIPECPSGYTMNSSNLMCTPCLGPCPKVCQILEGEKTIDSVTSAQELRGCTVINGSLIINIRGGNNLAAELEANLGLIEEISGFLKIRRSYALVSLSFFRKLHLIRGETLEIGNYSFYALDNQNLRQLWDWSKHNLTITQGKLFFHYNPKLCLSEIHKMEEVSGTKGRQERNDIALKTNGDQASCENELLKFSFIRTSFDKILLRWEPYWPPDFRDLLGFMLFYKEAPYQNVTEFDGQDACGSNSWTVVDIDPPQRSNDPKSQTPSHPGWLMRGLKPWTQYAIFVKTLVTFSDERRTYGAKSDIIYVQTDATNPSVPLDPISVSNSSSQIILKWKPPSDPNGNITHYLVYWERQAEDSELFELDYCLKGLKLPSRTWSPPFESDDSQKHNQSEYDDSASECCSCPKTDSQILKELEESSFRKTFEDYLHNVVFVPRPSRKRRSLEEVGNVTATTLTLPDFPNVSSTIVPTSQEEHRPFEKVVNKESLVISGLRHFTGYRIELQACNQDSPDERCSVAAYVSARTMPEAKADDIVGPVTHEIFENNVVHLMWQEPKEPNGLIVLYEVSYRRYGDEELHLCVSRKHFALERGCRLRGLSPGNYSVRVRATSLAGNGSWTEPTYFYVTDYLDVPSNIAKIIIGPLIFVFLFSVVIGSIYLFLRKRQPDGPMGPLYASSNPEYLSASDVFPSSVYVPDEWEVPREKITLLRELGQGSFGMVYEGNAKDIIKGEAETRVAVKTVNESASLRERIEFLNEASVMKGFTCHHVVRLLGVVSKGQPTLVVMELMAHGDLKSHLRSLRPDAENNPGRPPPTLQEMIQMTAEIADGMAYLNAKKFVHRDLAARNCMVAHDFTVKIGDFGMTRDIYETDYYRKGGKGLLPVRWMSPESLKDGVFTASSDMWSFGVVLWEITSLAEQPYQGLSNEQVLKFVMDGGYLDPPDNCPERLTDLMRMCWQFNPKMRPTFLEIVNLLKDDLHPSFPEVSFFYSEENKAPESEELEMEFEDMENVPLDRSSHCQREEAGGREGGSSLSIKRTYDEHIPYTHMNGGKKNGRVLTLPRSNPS
Assay [3] concerns the target human insulin receptor isoform with exon 11 (human) (UniProt P06213). The assay can be described thus: receptor binding, standard methods (FIG. 2).
The target of assay [4] is rat insulin receptor isoform with exon 11 (rat) (UniProt P15127). The assay can be described thus: receptor binding, standard methods (FIG. 2).
Chain of rat insulin receptor isoform with exon 11 (rat) (P15127 27-1383, stated change not applied): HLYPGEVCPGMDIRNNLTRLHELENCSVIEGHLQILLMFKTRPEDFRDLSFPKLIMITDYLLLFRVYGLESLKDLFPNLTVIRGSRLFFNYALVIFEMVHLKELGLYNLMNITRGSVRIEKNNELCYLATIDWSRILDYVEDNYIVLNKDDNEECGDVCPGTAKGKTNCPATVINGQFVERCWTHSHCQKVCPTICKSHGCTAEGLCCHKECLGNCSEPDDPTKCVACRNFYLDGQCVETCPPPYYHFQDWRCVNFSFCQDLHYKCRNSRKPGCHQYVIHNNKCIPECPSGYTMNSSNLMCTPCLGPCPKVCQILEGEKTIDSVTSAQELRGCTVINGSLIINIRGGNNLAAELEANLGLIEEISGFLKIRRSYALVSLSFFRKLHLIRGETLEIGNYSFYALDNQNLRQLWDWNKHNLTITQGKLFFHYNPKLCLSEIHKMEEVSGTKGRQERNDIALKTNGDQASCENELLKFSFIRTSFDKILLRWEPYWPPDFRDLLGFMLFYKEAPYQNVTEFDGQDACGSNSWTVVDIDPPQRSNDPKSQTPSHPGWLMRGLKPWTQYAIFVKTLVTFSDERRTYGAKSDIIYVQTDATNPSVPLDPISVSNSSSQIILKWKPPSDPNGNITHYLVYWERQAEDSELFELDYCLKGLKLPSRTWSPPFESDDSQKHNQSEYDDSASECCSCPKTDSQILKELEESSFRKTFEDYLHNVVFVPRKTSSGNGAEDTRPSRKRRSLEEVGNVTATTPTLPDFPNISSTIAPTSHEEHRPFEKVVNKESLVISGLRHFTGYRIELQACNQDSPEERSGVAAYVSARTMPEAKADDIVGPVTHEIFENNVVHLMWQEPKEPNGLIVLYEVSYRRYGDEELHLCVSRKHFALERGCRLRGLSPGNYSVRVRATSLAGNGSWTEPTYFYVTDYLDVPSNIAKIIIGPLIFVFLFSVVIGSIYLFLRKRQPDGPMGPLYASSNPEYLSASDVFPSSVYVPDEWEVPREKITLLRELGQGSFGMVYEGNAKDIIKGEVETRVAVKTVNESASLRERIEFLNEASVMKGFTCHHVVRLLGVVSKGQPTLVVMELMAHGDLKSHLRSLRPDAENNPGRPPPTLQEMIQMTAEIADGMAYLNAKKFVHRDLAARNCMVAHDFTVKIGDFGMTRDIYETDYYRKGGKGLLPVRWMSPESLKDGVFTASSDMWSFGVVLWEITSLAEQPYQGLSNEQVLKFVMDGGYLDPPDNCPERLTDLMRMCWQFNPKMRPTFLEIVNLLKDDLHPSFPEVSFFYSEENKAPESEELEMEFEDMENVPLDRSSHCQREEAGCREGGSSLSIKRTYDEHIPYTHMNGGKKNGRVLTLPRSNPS
In assay [5] the target is T1, human insulin receptor isoform without exon 11 (human, UniProt P06213-2 28-1370, limits assumed).
T1 construct: also called HIR-11; HIR - 11
The assay can be described thus: receptor binding, standard methods (FIG. 2).
Text: as §1

Assay [6] addresses T2, rat insulin receptor isoform without exon 11 (rat, UniProt P15127-2 27-1371, limits assumed).
T2 construct: also called RIR-11; RIR - 11
The assay can be described thus: receptor binding, standard methods (FIG. 2).
Text: as §1

For assay [7], the target named is T3, pig insulin receptor isoform without exon 11 (pig, UniProt F1SCK8 28-746; F1SCK8 751-1370).
T3 construct: also called PIR-11; PIR - 11
The assay is described as follows: receptor binding, standard methods (FIG. 2).
Text: as §1

In assay [8] the target is T4, pig insulin receptor isoform with exon 11 (pig, UniProt F1SCL0 28-758; F1SCL0 763-1382).
T4 construct: also called PIR+11; PIR + 11
The assay is described as follows: receptor binding, standard methods (FIG. 2).
Text: as §1

T2 sequence (P15127 other isoform, or with tags, fused parts or gaps limits assumed): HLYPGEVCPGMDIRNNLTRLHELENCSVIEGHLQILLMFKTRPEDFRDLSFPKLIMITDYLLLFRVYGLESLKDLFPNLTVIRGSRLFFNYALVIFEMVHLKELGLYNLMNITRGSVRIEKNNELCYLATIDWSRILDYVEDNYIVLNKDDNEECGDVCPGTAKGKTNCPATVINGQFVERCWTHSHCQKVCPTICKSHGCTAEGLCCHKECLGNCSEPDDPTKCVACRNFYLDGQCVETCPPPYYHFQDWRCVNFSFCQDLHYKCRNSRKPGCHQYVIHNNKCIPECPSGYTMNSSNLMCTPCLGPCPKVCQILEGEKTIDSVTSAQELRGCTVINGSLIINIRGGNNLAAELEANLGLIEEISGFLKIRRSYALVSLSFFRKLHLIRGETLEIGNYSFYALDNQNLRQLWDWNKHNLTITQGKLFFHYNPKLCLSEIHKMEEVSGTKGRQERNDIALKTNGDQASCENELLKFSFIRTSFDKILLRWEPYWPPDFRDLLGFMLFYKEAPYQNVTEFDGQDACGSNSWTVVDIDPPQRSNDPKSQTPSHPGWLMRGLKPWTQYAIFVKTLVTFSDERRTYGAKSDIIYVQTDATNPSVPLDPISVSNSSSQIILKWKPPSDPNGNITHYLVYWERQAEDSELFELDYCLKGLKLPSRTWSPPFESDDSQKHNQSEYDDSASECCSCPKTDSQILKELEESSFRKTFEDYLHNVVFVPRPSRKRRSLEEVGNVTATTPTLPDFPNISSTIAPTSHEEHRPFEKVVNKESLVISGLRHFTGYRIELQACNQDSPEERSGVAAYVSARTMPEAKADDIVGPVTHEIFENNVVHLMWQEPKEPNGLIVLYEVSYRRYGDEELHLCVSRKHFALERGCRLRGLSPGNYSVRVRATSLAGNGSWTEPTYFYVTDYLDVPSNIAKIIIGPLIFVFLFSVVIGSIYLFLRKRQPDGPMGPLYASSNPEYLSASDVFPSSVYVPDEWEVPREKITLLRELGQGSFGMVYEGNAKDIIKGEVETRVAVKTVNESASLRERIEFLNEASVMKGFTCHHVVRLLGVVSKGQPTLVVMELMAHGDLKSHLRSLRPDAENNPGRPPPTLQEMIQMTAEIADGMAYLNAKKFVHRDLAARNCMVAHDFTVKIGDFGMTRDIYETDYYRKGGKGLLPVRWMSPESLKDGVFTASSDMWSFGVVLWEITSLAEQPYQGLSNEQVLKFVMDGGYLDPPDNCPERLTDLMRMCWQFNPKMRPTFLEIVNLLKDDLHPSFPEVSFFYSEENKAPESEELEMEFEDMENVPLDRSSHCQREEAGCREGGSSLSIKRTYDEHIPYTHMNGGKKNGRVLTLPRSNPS

Regarding “MeO-PEG5000-SLEEEWAQIECEVYGRGCPSESFYDWFERQL ({MeO‑PEG5000}-SLEEEWAQIECEVYGRGCPSESFYDWFERQL; cysteine pairing not given here) [compound 660]”, in assay [1], the “relative affinity RIR +11” value was determined as 9.

B1: S636 (peptide)
peptide: Ac-SLEEEWAQIQCEVWGRGCPSESFYDWFERQL
modifications: cysteine pairing not given here
For B1, the “EC50 (FFC)” value in assay [2] was 0.056 nM. Besides, the “EC50 (FFC) rel. to HI” value in assay [2] was 98%. Further, the relative affinity in assay [3] came to 117; in assay [4] it was 79; in assay [5], 106; in assay [6] it was 50; in assay [7], 32; in assay [8], 68.

B2: S667 (peptide)
peptide: Ac-SLEEEWAQIQCEVWGRGCPSESFYGWFERQL
modifications: cysteine pairing not given here
Regarding B2, the “EC50 (FFC)” value in assay [2] worked out at 0.21 nM. Also, the “EC50 (FFC) rel. to HI” value in assay [2] worked out at 31%. Besides, the relative affinity came out at 127 in assay [3]; 112 in assay [4]; 111 in assay [5]; 44 in assay [6]; 47 in assay [7]; 84 in assay [8].

B3: S660 (peptide)
peptide: {MeO‑PEG5000}-SLEEEWAQIECEVYGRGCPSESFYDWFERQL
modifications: cysteine pairing not given here
Consider B3, for which the “EC50 (FFC)” value in assay [2] is 2 nM. Also, the “EC50 (FFC) rel. to HI” value in assay [2] is 3.3%. Further, the relative affinity in assay [3] was 58; in assay [4] it was 9; in assay [5], 52; in assay [6] it was 6.5; in assay [7] it was 5.5; in assay [8], 12.

B4: S696 (peptide)
peptide: SLEEEWAQVECEVYERGCPSESFYDWFERQL
Consider B4, for which, in assay [2], the “EC50 (FFC)” value is 870 nM. Besides, the relative affinity in assay [3] was found to be 3.1; in assay [4], 0.2; in assay [5], 3.3; in assay [6] it was 0.3; in assay [7] it was 0.3; in assay [8], 0.8.

B5: S671 (peptide)
peptide: Ac-SLEEEWAQIQCEVWGRGCPSESFYDWFERQLG
modifications: cysteine pairing not given here
Turning to B5, the “EC50 (FFC)” value in assay [2] stood at 0.1 nM. Besides, in assay [2], the “EC50 (FFC) rel. to HI” value was 65%. The relative affinity in assay [3] worked out at 98; in assay [4] it was 65; in assay [5] it was 86; in assay [6], 39; in assay [7], 23.

B6: S574 (peptide)
peptide: SLEEEWAQIEAEVWGRGAPSESFYDWFERQLG
On to B6, for which the relative affinity in assay [3] came to 8.2; in assay [4], 2; in assay [5] it was 8.3; in assay [6] it was 0.9; in assay [7], 0.2; in assay [8] it was 0.4.

B7: S733 (peptide)
peptide: Ac-SLEEEWAQIQCEVWGRGCPSESFYGWFERQLG
modifications: cysteine pairing not given here
In the case of B7, the “EC50 (FFC)” value in assay [2] came out at 0.12 nM. Besides, the “EC50 (FFC) rel. to HI” value in assay [2] was 61%. The relative affinity in assay [3] amounted to 290; in assay [4], 211; in assay [5] it was 281; in assay [6] it was 179; in assay [7] it was 111; in assay [8], 228.
